Measurements reported in article PMC8890701 (Science Advances, 2022).

How the values were obtained:
[1] = molecular target: S. pneumoniae LicB (S. pneumoniae); experiment: cryo-EM structure
S. pneumoniae LicB = molecular target: T1, S. pneumoniae LicB (Streptococcus pneumoniae TIGR4 (ATCC …)); experiment: cryo-EM structure
T1 chain: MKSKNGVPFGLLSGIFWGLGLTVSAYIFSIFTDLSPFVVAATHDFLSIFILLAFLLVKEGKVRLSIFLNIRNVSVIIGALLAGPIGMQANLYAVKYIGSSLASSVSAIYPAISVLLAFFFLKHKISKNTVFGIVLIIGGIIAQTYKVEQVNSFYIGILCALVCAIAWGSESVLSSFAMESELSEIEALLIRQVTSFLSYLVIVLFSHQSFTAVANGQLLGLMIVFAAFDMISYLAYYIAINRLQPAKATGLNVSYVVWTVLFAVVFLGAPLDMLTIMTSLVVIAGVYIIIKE

S. pneumoniae LicB (natural protein)
stoichiometry N [1]: 2

B1: sybody C (VHH)
VHH: QVQLVESGGGSVQAGGSLRLSCAASGTIHAIGYLGWFRQAPGKEREGVAALTTYDGWTYYADSVKGRFTVSLDNAKNTVYLQMNSLKPEDTALYYCAAADDGWMFPLYHNHYEYWGQGTQVTVSA
binding result (S. pneumoniae LicB): binds
